Legend:
[1] = target: T1, unglycosylated, monobiotinylated extracellular domain of human CD98hc produced in E. coli (human, UniProt P08195 111-529, single biotin on the N-terminal biotin acceptor peptide (BAP)); experiment: single clone flow cytometry of E. coli displaying the lipocalin, 1 nM biotinylated hCD98hcED, mean PE fluorescence
T1 construct: also called hCD98hcED; CD98hcED; not shown: N-terminal biotin acceptor peptide (BAP) from pASK-IBA5(+)-BAP-hCD98hcED
T1 sequence: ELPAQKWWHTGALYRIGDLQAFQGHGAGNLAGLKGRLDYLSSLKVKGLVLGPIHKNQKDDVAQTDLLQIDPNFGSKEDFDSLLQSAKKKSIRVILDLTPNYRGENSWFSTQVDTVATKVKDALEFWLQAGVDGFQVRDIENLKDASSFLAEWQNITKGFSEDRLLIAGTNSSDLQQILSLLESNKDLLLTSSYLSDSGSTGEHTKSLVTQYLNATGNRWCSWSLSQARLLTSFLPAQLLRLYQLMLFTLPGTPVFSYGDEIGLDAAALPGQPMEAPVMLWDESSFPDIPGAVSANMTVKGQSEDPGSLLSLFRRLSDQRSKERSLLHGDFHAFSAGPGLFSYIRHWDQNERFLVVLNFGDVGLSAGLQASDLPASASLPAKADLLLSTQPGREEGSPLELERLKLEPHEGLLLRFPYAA
Procedure: (§1) The bacterial lawn was scraped from the plate(s), resuspended in 50 ml LB/Amp medium, followed by inoculation to an initial OD₅₅₀ of 0.15 at 37° C. Gene expression was induced at OD₅₅₀=0.5 with 10 ng/ml anhydrotetracycline (aTc) for 2.5 h. Approximately 2×10⁸ cells were sedimented and resuspended in PBS with biotinylated hCD98hcED at different concentrations (cycles 1 and 2: 100 nM; cycles 3 and 4: 10 nM; cycles 5 and 6: 1 nM) for 1 h at 4° C. After one washing step with PBS, the bacteria were incubated with 25 μg/ml streptavidin/phycoerythrin (PE) conjugate (Biolegend, San Diego, Calif.) and 3 μM dye-labeled Fab A3C5-DY634 [61] in PBS for 30 min followed by a last washing step in PBS. Bacteria were sorted on a FACSAria Ilu instrument (BD Bioscience, Heidelberg, Germany) using a 488 nm LASER diode with a 585/42 band pass filter or a 633 nm HeNe LASER in combination with a 660/20 band pass filter for excitation/detection of PE and DY634 fluorescence, respectively. Sorted bacteria were plated on LB/Amp agar, incubated at 37° C. for 12 h and then subjected to a new sorting cycle. After BSD cycle 6, single clone analysis was performed by cytofluorimetric analysis of individual colonies. Data were processed using FlowJo v10 software (FlowJo, Ashland, Oreg.). […]

[2] = target: T2, fully glycosylated, monobiotinylated extracellular domain of human CD98hc produced in HEK 293E cells (human, UniProt P08195 111-529, N-linked glycosylation at Asn264, 280, 323 and 405 (UniProt P08195-2); single biotin on the N-terminal BAP); experiment: not given
T2 construct: also called hCD98hcEDg; CD98hcEDg; not shown: N-terminal His6 tag and biotin acceptor peptide (BAP) from pDSG-BM-His6-BAP-hCD98hcEDg
T2 sequence: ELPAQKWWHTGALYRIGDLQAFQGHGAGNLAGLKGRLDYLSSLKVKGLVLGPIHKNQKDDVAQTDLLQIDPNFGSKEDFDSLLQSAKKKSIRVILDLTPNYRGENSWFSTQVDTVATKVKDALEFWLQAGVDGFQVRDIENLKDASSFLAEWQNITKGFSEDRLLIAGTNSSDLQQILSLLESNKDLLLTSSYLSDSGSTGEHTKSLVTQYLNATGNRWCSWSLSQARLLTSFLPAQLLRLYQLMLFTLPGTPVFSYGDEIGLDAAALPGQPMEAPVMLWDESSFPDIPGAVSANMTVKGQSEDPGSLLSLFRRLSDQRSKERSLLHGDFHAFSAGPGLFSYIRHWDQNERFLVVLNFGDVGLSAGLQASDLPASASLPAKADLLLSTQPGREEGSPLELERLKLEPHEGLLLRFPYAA

[3] = target: T2, fully glycosylated, monobiotinylated …; experiment: SPR, biotinylated hCD98hcEDg captured on CAP chip
Procedure: (§2) Real time surface plasmon resonance (SPR) spectroscopy was performed on a BIAcore 2000 system (BIAcore, Uppsala, Sweden) at 25° C. using HBS-T (20 mM Hepes/NaOH pH 7.5, 150 mM NaCl, 0.005% v/v Tween20) as running buffer. The purified biotinylated m/hCD98hcED (3 μg/ml protein solution in HBS-T produced in HEK cells or E. coli) was immobilized (ARU-225) via streptavidin on a CAP sensorchip of the Biotin CAPture kit (GE Healthcare). SPR single cycle kinetic experiments were performed using five consecutive injections of a 1:2 dilution series of the purified lipocalin variant at a flow rate of 25 μl/min, with 288 s contact time and 3500 s dissociation time after the fifth injection. For multi cycle kinetic experiments, eight samples from a consecutive 1:2 dilution series of the purified lipocalin variant were measured. Rate constants of association and dissociation were calculated from reference-corrected sensorgrams by fitting to a global 1:1 Langmuir binding model using BIAevaluation software (BIAcore). The equilibrium dissociation constants (KD value) were calculated as the quotient koff/kₒₙ. To test competitive binding of the lipocalin variants P3D11, P3A12 and P1E4 to glycosylated hCD98hcED, 100 nM of P3D11 was first injected and followed by a subsequent injection of either 100 nM P3A12 or 100 nM P1E4. HBS-T injections served as negative control.

[4] = target: T2, fully glycosylated, monobiotinylated …; experiment: SPR, complex dissociation half-life
Procedure: as §2

[5] = target: T1, unglycosylated, monobiotinylated …; experiment: SPR, complex dissociation half-life
Procedure: as §2

[6] = target: T1, unglycosylated, monobiotinylated …; experiment: SPR (BIAcore 2000), biotinylated hCD98hcED captured on CAP chip, single cycle kinetics
Procedure: as §2

[7] = target: T1, unglycosylated, monobiotinylated …; experiment: flow cytometry of E. coli displaying the lipocalin; hCD98hcED detected by PE fluorescence, display level by Dy634 fluorescence
Procedure: as §1

B1: P3D11 variant D11.1 displayed on the E. coli cell surface (designed binder)
chain: QDSTSDLIPAPPLSKVPLQQNFQDNQFHGKWYVVGRAGNTGLREDKDPGKMFATIYELKEDKSYNVTYVWSGQKKCMYSIVTFVPGSQPGEFTLGNIKSAPGQTSWLVRVVSTNYNQHAMVFFKSVTQNREGFAITLYGRTKELTSELKEIFIRFSKSLGLPENHIVFPVPIDQCIDG
notes: One of the variants from error-prone PCR and bacterial surface display; not shown: The display carrier: the A3C5 tag and the engineered beta-domain of the autotransporter EspP (pNGAL146)
binding result [1]: binds

B2: SEQ ID NO 8 (designed binder)
chain: QDSTSDLIPAPPLSKVPLQQNFQDNQFHGKWYVVGRAGNTGLREDKDPGKMFATIYELKEDKSYNVTYVWFGQKKCMYSIVTFVPGSQPGEFTLGNIKSAPGRTSWLVRVVSTNYNQYAMVFFKSETQNREGFAITLYGRTKELTSELKEYFIRFSKSLGLPENHIVFPVPIDQCIDG
Kd [2]: ≤ 200 nM

B3: SEQ ID NO 11 (designed binder)
chain: QDSTSDLIPAPPLSKVPLQQNFQDNQFHGKWYVVGRAGNTGLREDKDPGKMFATIYELKEDKSYNVTYVWSGQTKCMYSIVTFVPGSQPGEFTLGNIKSAPGRTSWLVRVVSTNYNQHAMVFFKSVTQNREGFAITLYGRTKELTSELKENFIRFSKSLGLPENHIVFPVPIDQCIDG
Kd [2]: ≤ 200 nM

B4: lipocalin variant P3D11 (designed binder)
chain: QDSTSDLIPAPPLSKVPLQQNFQDNQFHGKWYVVGRAGNTGLREDKDPGKMFATIYELKEDKSYNVTYVWFGQKKCMYSIGTFVPGSQPGEFTLGNIKSAPGRTSWLVRVVSTNYNQHAMVFFKSVTQNREGFAITLYGRTKELTSELKENFIRFSKSLGLPENHIVFPVPIDQCIDG
notes: produced soluble in E. coli JM83, monomeric; also called Anticalin P3D11; not shown: C-terminal His6-tag (plasmid pNGAL118)
Kd [3]: 0.17 nM
koff [3]: 5e-05 s⁻¹
kon [3]: 300000 M⁻¹ s⁻¹
T1/2 [4]: 3.83 h
T½ [5]: 5.99 h
Kd [2]: ≤ 200 nM
Kd [6]: 0.15 nM
koff [6]: 3.2e-05 s⁻¹
kon [6]: 220000 M⁻¹ s⁻¹

B5: SEQ ID NO 6 (designed binder)
chain: QDSTSDLIPAPPLSKVPLQQNFQDNQFHGKWYVVGRAGNTGLREDKDPGKMFATIYELKEDKSFNVTYVWFGQKKCMYSIVTFVPGSQPGEFTLGNIKSAPGRTSWLVRVVSTNYNQHAMVFFKSVTQNREGFAITLYGRTKELTSELKENFIRFSKSLGLPENHIVFPVPIDQCIDG
Kd [2]: ≤ 200 nM

B6: SEQ ID NO 9 (designed binder)
chain: QDSTSDLIPAPPLSKVPLQQNFQDNQFHGKWYVVGRAGNTGLREDKDPGKMFATIYELKEDKSYNVTYVWFGQKKCMYSIVTFVPGSQPGEFTLGNIKSAPGRTSWLVRVVSTNYNQHAMVFFKSVTQNREEFAITLYGRTKELTSELKENFIRFSKSLGLPENHIVFPVPIDQCIDG
Kd [2]: ≤ 200 nM

B7: SEQ ID NO 5 (designed binder)
chain: QDSTSDLIPAPPLSKVPLQQNFQDNQFHGKWYVVGRAGNTGLREDKDPGKMFATIYELKEDKSYNVTYVWFGQKKCMYSIVTFVPGSQPGEFTLGNIKSAPGRTSWLVRVVSTNYNQYAMVFFKSVTQNREGFAITLYGRTKELTSELKENFIRFSKSLGLPENHIVFPVPIDQCIDG
Kd [2]: ≤ 200 nM

B8: SEQ ID NO 7 (designed binder)
chain: QDSTSDLIPAPPLSKVPLQQNFQDNQFHGKWYVVGRAGNTGLREDKDPGKMFATIYELKEDKSYNVTYVWFGQKKCMNSIVTFVPGSQPGEFTLGNIKSAPGRTSWLVRVVSTNYNQYAMVFFKSVTQNREGFAITLYGRTKELTSELKENFIRFSKSLGLPENHIVFPVPIDQCIDG
Kd [2]: ≤ 200 nM

B9: SEQ ID NO 10 (designed binder)
chain: QDSTSDLIPAPPLSKVPLQQNFQDNQFHGKWYVVGRAGNTGLREDKDPGKMFATIYELKEDKSYNVTYVWSGQKKCMYSIVSFVPGSQPGEYNLGNIKSAPGRTSWLVRVVSTNYNQHAMVFFKSVTQNREGFAITLYGRTKELTSELKENFIRFSKSLGLPENHIVFPVPIDQCIDG
Kd [2]: ≤ 200 nM

B10: wtLcn2 displayed on the E. coli cell surface (other)
chain: QDSTSDLIPAPPLSKVPLQQNFQDNQFQGKWYVVGLAGNAILREDKDPQKMYATIYELKEDKSYNVTSVLFRKKKCDYWIRTFVPGCQPGEFTLGNIKSYPGLTSYLVRVVSTNYNQHAMVFFKKVSQNREYFKITLYGRTKELTSELKENFIRFSKSLGLPENHIVFPVPIDQCIDG
notes: Control in the single clone FACS analysis; also called wild type Lcn2; not shown: The display carrier: the A3C5 tag and the engineered beta-domain of the autotransporter EspP (pNGAL146)
binding result [7]: no binding (tested: 100 nM hCD98hcED)

B11: lipocalin variant P3A12 (designed binder)
chain: QDSTSDLIPAPPLSKVPLQQNFQDNQFHGKWYVVGRAGNLGLREDKDPAKMFATIYELKEDKSYNVTYVWFDLKKCKYSIHTFVPGSQPGEFTLGKIKSGPGHTSWLVRVVSTNYNQHAMVFFKWVGQNRENFAITLYGRTKELTSELKENFIRFSKSLGLPENHIVFPVPIDQCIDG
notes: produced soluble in E. coli JM83, monomeric; also called Anticalin P3A12; not shown: C-terminal His6-tag (plasmid pNGAL118)
Kd [3]: 1.9 nM
koff [3]: 0.0004 s⁻¹
kon [3]: 220000 M⁻¹ s⁻¹
T1/2 [4]: 0.483 h
T½ [5]: 1.13 h
Kd [2]: ≤ 200 nM
Kd [6]: 2.8 nM
koff [6]: 0.00017 s⁻¹
kon [6]: 62000 M⁻¹ s⁻¹
